In the supplement of paper PMC12042874 one finds amyloid nucleation score data, which are given here for 138 substances.

± gives the uncertainty stated by the source.

A short description of the data set: amyloid nucleation score (Sup35N fusion, yeast selection) (log enrichment); library NNK1; higher = more nucleation; inactive = no reads after selection. Summed up:
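For the nucleation score, DiMSum gave the log enrichment of output over input reads, centred on the mode score of non-aggregating sequences. Psi-negative yeast expressing Sup35N fused to peptides of 20 random codons were induced with 100 μM copper sulfate for 24 hours and grown 7 days at 30°C on medium lacking adenine and uracil. Input and output plasmid inserts were Illumina-sequenced, and sequences with under 100 input reads were excluded.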

EEGDAAGVVILNMQRSYG came in with an amyloid nucleation score of -0.427 ± 0.41.
In the case of ILLRLGDVVRIGLVFVTSFG, the amyloid nucleation score is 0.421 ± 0.61.
The substance VWIALFDVTDDMSARTDIWS came in with an amyloid nucleation score of -0.876 ± 0.74.
WMNFWHLFSVFLLFSAICWF gave an amyloid nucleation score of -0.006 ± 0.61.
WKKGRMMIKSQSGGLSQVWG came in with an amyloid nucleation score of 1.05 ± 0.59.
As for TFYCYLSLGSHEKKADFSNN, the amyloid nucleation score stood at 2.21 ± 0.15.
NLINVFTLKWFDITL came in with an amyloid nucleation score of 5.686 ± 0.053.
Consider HKRAEKHNHFITWSIQSLRA, for which the amyloid nucleation score was determined as 0.653 ± 0.33.
In turn, KVCVLLSSCIYDNLHVR displayed an amyloid nucleation score of 0.402 ± 1.4.
On to YRSFCFRWWISSGCAGLRGS, for which the amyloid nucleation score is 0.489 ± 0.67.
On to RIVRRFAGLISSI, for which the amyloid nucleation score result was “inactive”.
NTHTAWNRIGRTWRQNWTWG: the amyloid nucleation score amounted to 0.061 ± 0.47.
Consider GHSDFYTTPLKLCRGE, for which the amyloid nucleation score worked out at 0.634 ± 0.72.
Regarding GHIDAQWPRFRCHMA, the amyloid nucleation score was 0.147 ± 0.32.
In the case of ASKFYHFRTQEYTS, the amyloid nucleation score is 0.212 ± 0.28.
In turn, KVFGTRPVRYETCRFLRLRS registered an amyloid nucleation score of -0.013 ± 0.34.
As for NQCYYRAGLFRVDLFCLELA, the amyloid nucleation score result is “inactive”.
The substance ILLMSSGEDYSHTGAP yielded an amyloid nucleation score of -0.06 ± 0.76.
ILFRVVSRVGISRYGWKRVL displayed an amyloid nucleation score of -0.241 ± 0.83.
The substance GFYDRYVNAGMECAGPSSQR came in with an amyloid nucleation score of 5.24 ± 0.079.
FNCLMALIFPDVLDCSYSVD came in with an amyloid nucleation score of 1.26 ± 0.9.
Regarding AYCLRN, the amyloid nucleation score turned out to be 0.211 ± 0.68.
On to TLTSPWDSYKRFCKNSPLFN, for which the amyloid nucleation score was found to be 0.353 ± 1.4.
For SWYCGTASLVAKAVADRAGD, the amyloid nucleation score came out at 0.062 ± 0.5.
For the substance HHAFFDIPRVRGEYECFAGI, the amyloid nucleation score is 0.192 ± 0.25.
In turn, KPEFVNWIC yielded an amyloid nucleation score of 0.083 ± 0.32.
For HHVIRVDIMMFVVKSSELYN, the amyloid nucleation score result is “inactive”.
Consider YNSVKVNRFH, for which the amyloid nucleation score is 1.3 ± 0.74.
In the case of MGTRILSRTFVVYTTPGYCW, the amyloid nucleation score amounted to 0.093 ± 0.27.
The substance KDVLVRFMYLG had an amyloid nucleation score of -0.21 ± 0.68.
The same measure for HSCEPVMLVLNMNR: 8.159 ± 0.072; for EGNSDCLWVGYGASMTRWVR: 0.258 ± 0.88.
As for SCLMY, the amyloid nucleation score result is “inactive”.
Regarding YVVLASVMLITYVRA, the amyloid nucleation score was determined as 0.786 ± 0.38.
SVNTPTGSIFEICQYDSIKG displayed an amyloid nucleation score of -0.302 ± 0.45.
As for SYAMLCIYVGYFIFLNSRMS, the amyloid nucleation score entry was “inactive”.
Regarding EGWPTSTLSLSRYALLGSPR, the amyloid nucleation score was -0.486 ± 0.66.
TLKHEQAREGFFAM had an amyloid nucleation score of -0.053 ± 0.56.
ITGFKFS yielded an amyloid nucleation score of 0.698 ± 0.3.
As to YSFRGEHSTLCLDNVVKSFQ, the amyloid nucleation score entry is “inactive”.
Under VILLILNYYSHWDVLLK stands -0.111 ± 0.4.
The same measure for YIAVGV: 0.015 ± 0.62; for FLLIVVCWDLRLSSFHKLYF: 0.657 ± 0.73.
Take SQCELWGCSCTPYNRMFSGN: the amyloid nucleation score result is “inactive”.
As to KFVWVIAVDVDSRCKFCCGS, the amyloid nucleation score came out at 0.354 ± 0.82.
Substance DIRMVDWVRNRVQHVADGK had an amyloid nucleation score of -0.892 ± 0.7.
Take LHLPYGCTASAICQFECSGW: the amyloid nucleation score was found to be 3 ± 0.15.
As for QYRHRGRQHLMGGNAQCPYV, the amyloid nucleation score stood at 0.477 ± 0.66.
Turning to NAYRYMCRCGFLSLRAGWRV, the amyloid nucleation score result is “inactive”.
In turn, GNCPNQIGAYVVKIIRMPAL came in with an amyloid nucleation score of -0.311 ± 0.55.
On to VRRVPKLVHAADLELWAGSE, for which the amyloid nucleation score was -0.754 ± 1.1.
The substance HVLMLNW had an amyloid nucleation score of 3.05 ± 0.084.
With HQNRDIIMMMSFCAGNTGYK, the amyloid nucleation score is 4.98 ± 0.12.
For PGVECACRVSNATNVDGLDL, the amyloid nucleation score was -0.168 ± 0.5.
Take NTSDDYIDLRYNHKGEAFEG: the amyloid nucleation score result is “inactive”.
In the case of VEDAIDACKFNCDSIDMTTD, the amyloid nucleation score was -0.206 ± 0.75.
On to SFEFGSSGRICVCIMFPVER, for which the amyloid nucleation score turned out to be 1.08 ± 0.56.
Substance KHAYFSLIRVSNWKWNSVRV gave an amyloid nucleation score of -0.027 ± 0.56.
Take WELMLTTH: the amyloid nucleation score came to 0.453 ± 0.33.
Under ATCPLYEVLSCYARVKFANT stands -0.357 ± 0.33; under KKYVMSNVTCVE, 0.934 ± 0.47.
The substance CLEFLG came in with an amyloid nucleation score of -0.526 ± 0.49.
In the case of LICPSLHPRAVGECSSVCWR, the amyloid nucleation score amounted to 0.157 ± 0.19.
On to MQVVVYKYLTMYQR, for which the amyloid nucleation score is 1.29 ± 0.76.
Regarding DSWRSIIGFRERVSTMQYLI, the amyloid nucleation score is 0.96 ± 0.66.
Take LSFNSTSPEIIRTVVMAWC: the amyloid nucleation score is -1.54 ± 1.7.
The same measure for NPCHKMFSRNPHLYMAAVKS: 0.335 ± 0.96.
In turn, NKCIAKDGDMES had an amyloid nucleation score of -0.015 ± 0.23.
As to RCDNAQLHIFVHLFRSVSDM, the amyloid nucleation score entry is “inactive”.
On to FTAVK, for which the amyloid nucleation score was -0.188 ± 0.46.
For VIRCRKFRTVWILFLAISLV, the amyloid nucleation score entry was “inactive”.
As to NYHLGCCNISMF, the amyloid nucleation score is 7.856 ± 0.047.
For VAATDWVGNHKS, the amyloid nucleation score was 1.28 ± 0.55.
Take YPVRFHTYVVISTFGEIGFG: the amyloid nucleation score worked out at 0.822 ± 0.43.
In turn, TSSEFDLLNGQFANGYVLVH gave an amyloid nucleation score of 0.546 ± 0.5.
AFRFHQHMACREL: the amyloid nucleation score came to 4.36 ± 0.055.
For HLHFTILY, the amyloid nucleation score was determined as 2.55 ± 0.28.
PNSYASVHSNHKDIREAMYL: the amyloid nucleation score is 0.021 ± 0.44.
The same measure for NVQVKWGQTRVTCWDYGGEH: 0.467 ± 0.34; for SCWNSCNKMSF: 2.87 ± 0.24.
As for SHIFRWNTCRMEIRWYNQYY, the amyloid nucleation score was found to be 1.14 ± 0.71.
In turn, LQLWLMDGSSRGRWV registered an amyloid nucleation score of 0.12 ± 0.64.
Regarding GNWLSS, the amyloid nucleation score was -0.082 ± 0.9.
Turning to FMRDCSYI, the amyloid nucleation score was 0.687 ± 0.79.
Consider ISSWTHVW, for which the amyloid nucleation score amounted to 1.23 ± 0.85.
In turn, LFTRIFSLSMYVPNCFRYAY returned an amyloid nucleation score of 1.02 ± 0.39.
As for DDKIVRIEDSMAASNIAFLA, the amyloid nucleation score is 0.371 ± 0.32.
The substance DLSNNRWWFNRFRALHYKSS had an amyloid nucleation score of -0.358 ± 0.85.
Substance FPDMCILRILYVKVLV had an amyloid nucleation score of -1.52 ± 1.6.
SNRFFVPRA showed an amyloid nucleation score of -0.334 ± 0.5.
For VVNWIASMGCIFYRVPNVSG, the amyloid nucleation score is 4.66 ± 0.13.
Regarding HFHNSCLYIGRVHIGHTLGV, the amyloid nucleation score is 7.826 ± 0.052.
For RFYIMYLSGCAKTSFCGFVS, the amyloid nucleation score is 6.4 ± 0.079.
The substance DLAFRPVLVLQ had an amyloid nucleation score of 0.762 ± 0.65.
CLETACRILGFCN registered an amyloid nucleation score of -0.488 ± 0.21.
On to LFSCWQSGRVNKYYVDGSMG, for which the amyloid nucleation score was -0.206 ± 0.97.
Take RSWDRYMFGRNRCVDWGR: the amyloid nucleation score came to 0.107 ± 0.9.
In turn, WGCRV displayed an amyloid nucleation score of -0.451 ± 0.58.
The same measure for FDFCVEIWLRVFLNMWGRLR: 0.689 ± 0.33; for YVSYRIVLGRMPGMKHSRKR: 3.6 ± 0.088; for SRIFCTWPVSVIYNRADSAQ: 0.838 ± 0.56.
Regarding FYTAYCGLALRLVTTQPCMS, the amyloid nucleation score is -0.001 ± 0.49.
The substance PFVRVLTLGYAGVWNGRGKP displayed an amyloid nucleation score of 0.904 ± 0.57.
YYTCGMYPIYRCCLRTMYSA: the amyloid nucleation score is -0.494 ± 0.22.
The substance NDDNCSSVSWWNKWCSTR registered an amyloid nucleation score of 1.44 ± 0.41.
Substance MNVVILEAYGRSPIGMQAFF gave an amyloid nucleation score of 2.59 ± 0.18.
The substance YAVRYFETVVLQGIEVIPES returned an amyloid nucleation score of 0.205 ± 0.6.
Substance CTREVLWGCHCNSSASNLFS came in with an amyloid nucleation score of -0.202 ± 0.61.
Under GRGHREPIVKDAAGRLGSWS stands -0.421 ± 0.94; under VYRDLVDAYVTDYMCWGAPG, “inactive”.
Under VQADFFCSAPGHCIWVNGMR stands 1.73 ± 0.31; under IWMTGVLLNP, -0.223 ± 0.29.
The same measure for CCGGECLRVYRIMLGTVECT: 0.329 ± 0.28; for YKWIDRMVDERQLMSSKRQW: 0.099 ± 0.66.
FTSAASQFRVMSGQSNSKYP came in with an amyloid nucleation score of -1.2 ± 2.4.
The same measure for NSVWLLTNVLKFGTNVSRHR: 2.57 ± 0.16; for CLFFNYRVIEFNTPGVNMFW: 0.739 ± 0.33; for RYKNSIDSESVINRLLWDAT: 0.431 ± 0.8.
Turning to ERTICSVITMNHGSSAYQGS, the amyloid nucleation score was -0.081 ± 0.47.
For the substance SCILFY, the amyloid nucleation score was found to be 1.75 ± 0.14.
The substance VGVRRDTCSPRQVLGHTS showed an amyloid nucleation score of 0.301 ± 0.52.
As to KNGRWAWFTSRAHCFGYNFT, the amyloid nucleation score is -1.14 ± 0.82.
Under SNMLHWSVRMGHGWW stands 0.184 ± 1; under FNIIASPSWVSVRNHGNLWV, 4.91 ± 0.062; under ELKTFTDKIGG, “inactive”.
DMEYGGKRHNNCSDLIITNC had an amyloid nucleation score of -0.726 ± 1.1.
The substance LDFIKWAYNWCRLIVGIGGC registered an amyloid nucleation score of -0.476 ± 1.9.
In turn, PPQLHRVEFLIVSGR returned an amyloid nucleation score of -0.859 ± 1.4.
ADDVCSCQGFLYRDVFCATD showed an amyloid nucleation score of 0.531 ± 0.93.
GENYLGCLGSFWKTSNTCCP: the amyloid nucleation score was -0.881 ± 1.4.
Substance NGMIFFVIGMNFGCQESSRN registered an amyloid nucleation score of 6.208 ± 0.051.
Consider VYLVMSVCGTRNGYKHSSQL, for which the amyloid nucleation score amounted to 0.265 ± 0.25.
In turn, ERLHMLLAKCIHVGETRHLN showed an amyloid nucleation score of 0.194 ± 0.66.
Regarding VSEIFFWFKSWRRRLRLRMG, the amyloid nucleation score result is “inactive”.
The same measure for ALHVGLNSFPGMSRYV: 0.212 ± 0.89; for CVIQVVLYLV: 3.83 ± 0.059.
The same measure for RRSSILVNTGYPDLGYVMGD: -1.18 ± 1.3; for VTLQQRLCSFYMLIVEFASS: 0.045 ± 0.43.
